Article PMC3902928, “Nuclear ubiquitination by FBXL5 modulates Snail1 DNA binding and stability” (Nucleic Acids Research, 2013)

T1: 3xFlag-FBXL5 (baculovirus) (UniProt Q9UKA1 1-691)
T1 construct: FBXL5; pFastBac1 3xFlag-FBXL5 provided by Dr Bruick; source: also co-infected with 6xHis-Skp1, HA-Cullin1 and Rbx1 for the SCF^FBXL5 complex; not shown: 3xFlag, N-terminal, kept
T1 sequence (looked up): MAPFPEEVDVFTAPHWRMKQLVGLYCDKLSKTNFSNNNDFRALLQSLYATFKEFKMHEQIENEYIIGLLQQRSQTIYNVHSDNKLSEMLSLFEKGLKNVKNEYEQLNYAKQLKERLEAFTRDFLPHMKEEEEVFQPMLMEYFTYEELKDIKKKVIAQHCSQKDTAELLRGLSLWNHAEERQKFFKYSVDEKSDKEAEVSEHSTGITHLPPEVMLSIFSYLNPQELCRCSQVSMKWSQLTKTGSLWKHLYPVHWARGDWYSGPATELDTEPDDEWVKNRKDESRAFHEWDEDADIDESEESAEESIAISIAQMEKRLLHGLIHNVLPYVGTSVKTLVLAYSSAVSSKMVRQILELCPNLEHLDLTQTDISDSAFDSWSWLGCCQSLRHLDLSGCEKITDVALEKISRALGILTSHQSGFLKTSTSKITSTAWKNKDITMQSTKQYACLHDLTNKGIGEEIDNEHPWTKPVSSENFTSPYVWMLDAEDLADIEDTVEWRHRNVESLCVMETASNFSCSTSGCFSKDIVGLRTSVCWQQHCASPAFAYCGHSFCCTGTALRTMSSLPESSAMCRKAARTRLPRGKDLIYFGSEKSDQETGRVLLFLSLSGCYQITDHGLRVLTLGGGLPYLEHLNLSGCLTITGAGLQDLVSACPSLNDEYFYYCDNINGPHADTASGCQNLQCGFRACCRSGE


Key:
GST-FBXL5 (pGEX-6P-1) = GST-FBXL5 (pGEX-6P-1) (UniProt Q9UKA1); assay: pull-down; GST or GST-FBXL5 protein on glutathione-sepharose with extracts from transfected HEK293T cells; western blot
[1] = biological target: T1, 3xFlag-FBXL5 (baculovirus); assay: pull-down; 0.2 pmol 3xFlag-FBXL5 incubated with 2.5 pmol GST or GST-Snail1 as baits on glutathione-sepharose; western blot; conditions: both partners purified

Row | Molecule | decrease of binding against the full C-terminal domain (GST-FBXL5 (pGEX-6P-1)) [%] | binding result [1]
1 | GFP-Snail1CT ΔZnF1-2 (from UniProt Q02085 209-264) (domain or fragment) | 80 | –
2 | GFP-Snail1CT ΔZnF1 (from UniProt Q02085 181-264) (domain or fragment) | 45 | –
3 | GFP-Snail1CT ΔZnF3-4 (from UniProt Q02085 152-208) (domain or fragment) | > 50 | –
4 | GST-Snail1-HA (baculovirus) (natural protein, UniProt Q02085 1-264, looked up, Snail1; insert subcloned from pcDNA3-Snail1-HA through pEBG-2T into pFastBac1; source: Sf9, baculovirus-infected, purified; not shown: GST, N-terminal, kept) MPRSFLVRKPSDPRRKPNYSELQDACVEFTFQQPYDQAHLLAAIPPPEVLNPAASLPTLIWDSLLVPQVRPVAWATLPLRESPKAVELTSLSDEDSGKSSQPPSPPSPAPSSFSSTSASSLEAEAFIAFPGLGQLPKQLARLSVAKDPQSRKIFNCKYCNKEYLSLGALKMHIRSHTLPCVCTTCGKAFSRPWLLQGHVRTHTGEKPFSCSHCNRAFADRSNLRAHLQTHSDVKRYQCQACARTFSRMSLLHKHQESGCSGGPR | – | binds
